Assay results taken from the supplement of paper PMC11246515.
± gives the standard deviation of the averaged measurements.

Experiment: total protein half-life in vivo (active degradation + dilution); higher = more stable protein
[1] = E. coli NCM3722 delta-clpP delta-lon delta-hslV, growth: N-lim chemostat, doubling time 6 h
[2] = E. coli NCM3722 delta-clpP, growth: N-lim chemostat, doubling time 6 h
[3] = E. coli NCM3722 delta-hslV, growth: N-lim chemostat, doubling time 6 h
[4] = E. coli NCM3722 delta-lon, growth: N-lim chemostat, doubling time 6 h
[5] = E. coli NCM3722 delta-smpB, growth: N-lim chemostat, doubling time 6 h
[6] = wild type E. coli NCM3722, growth: C-lim chemostat, doubling time 3 h
[7] = wild type E. coli NCM3722, growth: C-lim chemostat, doubling time 6 h
[8] = wild type E. coli NCM3722, growth: C-lim chemostat, doubling time 12 h
[9] = wild type E. coli NCM3722, growth: N-lim chemostat, doubling time 6 h
[10] = wild type E. coli NCM3722, growth: N-lim chemostat, doubling time 12 h
[11] = wild type E. coli NCM3722, growth: P-lim chemostat, doubling time 6 h
[12] = wild type E. coli NCM3722, growth: P-lim chemostat, doubling time 12 h

Sequence | total protein half-life in vivo [1] | total protein half-life in vivo [2] | total protein half-life in vivo [3] | total protein half-life in vivo [4] | total protein half-life in vivo [5] | total protein half-life in vivo [6] | total protein half-life in vivo [7] | total protein half-life in vivo [8] | total protein half-life in vivo [9] | total protein half-life in vivo [10] | total protein half-life in vivo [11] | total protein half-life in vivo [12]
MATIDSMNKDTTRLSDGPDWTFDLLDVYLAEIDRVAKLYRLDTYPHQIEVITSEQMMDAYSSVGMPINYPHWSFGKKFIETERLYKHGQQGLAYEIVINSNPCIAYLMEENTITMQALVMAHACYGHNSFFKNNYLFRSWTDASSIVDYLIFARKYITECEERYGVDEVERLLDSCHALMNYGVDRYKRPQKISLQEEKARQKSREEYLQSQVNMLWRTLPKREEEKTVAEARRYPSEPQENLLYFMEKNAPLLESWQREILRIVRKVSQYFYPQKQTQVMNEGWATFWHYTILNHLYDEGKVTERFMLEFLHSHTNVVFQPPYNSPWYSGINPYALGFAMFQDIKRICQSPTEEDKYWFPDIAGSDWLETLHFAMRDFKDESFISQFLSPKVMRDFRFFTVLDDDRHNYLEISAIHNEEGYREIRNRLSSQYNLSNLEPNIQIWNVDLRGDRSLTLRYIPHNRAPLDRGRKEVLKHVHRLWGFDVMLEQQNEDGSIELLERCPPRMGNL | 4.27 ± 0.81 h | 2.4 ± 0.062 h | 1.59 ± 0.2 h | 1.41 ± 0.15 h | 1.49 ± 0.034 h | 1.05 ± 0.18 h | 1.49 ± 0.059 h | 1.94 ± 0.49 h | 1.48 ± 0.34 h | 1.65 ± 0.15 h | 1.48 ± 0.55 h | 2.27 ± 0.67 h
MATIKDVAKRANVSTTTVSHVINKTRFVAEETRNAVWAAIKELHYSPSAVARSLKVNHTKSIGLLATSSEAAYFAEIIEAVEKNCFQKGYTLILGNAWNNLEKQRAYLSMMAQKRVDGLLVMCSEYPEPLLAMLEEYRHIPMVVMDWGEAKADFTDAVIDNAFEGGYMAGRYLIERGHREIGVIPGPLERNTGAGRLAGFMKAMEEAMIKVPESWIVQGDFEPESGYRAMQQILSQPHRPTAVFCGGDIMAMGALCAADEMGLRVPQDVSLIGYDNVRNARYFTPALTTIHQPKDSLGETAFNMLLDRIVNKREEPQSIEVHPRLIERRSVADGPFRDYRR [P0ACP7] | 5.38 ± 0.92 h | 5.291 ± 0.032 h | 4.538 ± 0.044 h | 5.39 ± 0.36 h | 4.55 ± 0.3 h | 3.02 ± 0.049 h | 5.87 ± 0.35 h | 10.4 ± 1.1 h | 5.02 ± 0.61 h | 7.74 ± 1.6 h | 5.29 ± 0.41 h | 10.9 ± 1.4 h
MATLKDIAIEAGVSLATVSRVLNDDPTLNVKEETKHRILEIAEKLEYKTSSARKLQTGAVNQHHILAIYSYQQELEINDPYYLAIRHGIETQCEKLGIELTNCYEHSGLPDIKNVTGILIVGKPTPALRAAASALTDNICFIDFHEPGSGYDAVDIDLARISKEIIDFYINQGVNRIGFIGGEDEPGKADIREVAFAEYGRLKQVVREEDIWRGGFSSSSGYELAKQMLAREDYPKALFVASDSIAIGVLRAIHERGLNIPQDISLISVNDIPTARFTFPPLSTVRIHSEMMGSQGVNLVYEKARDGRALPLLVFVPSKLKLRGTTR | 5.54 ± 0.078 h | 6.95 ± 1.2 h | 5.31 ± 0.62 h | 5.72 ± 0.54 h | 5.35 ± 0.066 h | 2.89 ± 0.27 h | 5.94 ± 0.29 h | 9.8 ± 0.15 h | 5.07 ± 0.53 h |  | 6.01 ± 0.76 h | 13.4 ± 2.6 h
MATLTAKNLAKAYKGRRVVEDVSLTVNSGEIVGLLGPNGAGKTTTFYMVVGIVPRDAGNIIIDDDDISLLPLHARARRGIGYLPQEASIFRRLSVYDNLMAVLQIRDDLSAEQREDRANELMEEFHIEHLRDSMGQSLSGGERRRVEIARALAANPKFILLDEPFAGVDPISVIDIKRIIEHLRDSGLGVLITDHNVRETLAVCERAYIVSQGHLIAHGTPTEILQDEHVKRVYLGEDFRL [P0A9V1] | 6.21 ± 0.31 h | 6.33 ± 0.48 h | 5.919 ± 0.031 h | 6.05 ± 0.57 h | 5.51 ± 0.55 h | 2.811 ± 0.004 h | 6.061 ± 0.04 h | 11.2 ± 0.66 h | 5.52 ± 0.24 h | 13.3 ± 0.87 h | 5.46 ± 0.24 h | 12.4 ± 0.82 h
MATNAKPVYKRILLKLSGEALQGTEGFGIDASILDRMAQEIKELVELGIQVGVVIGGGNLFRGAGLAKAGMNRVVGDHMGMLATVMNGLAMRDALHRAYVNARLMSAIPLNGVCDSYSWAEAISLLRNNRVVILSAGTGNPFFTTDSAACLRGIEIEADVVLKATKVDGVFTADPAKDPTATMYEQLTYSEVLEKELKVMDLAAFTLARDHKLPIRVFNMNKPGALRRVVMGEKEGTLITE [P0A7E9] | 4.84 ± 0.3 h | 5.18 ± 0.45 h | 4.79 ± 0.38 h | 5.16 ± 0.34 h | 4.49 ± 0.16 h | 3.24 ± 0.27 h | 7 ± 1.2 h | 10.4 ± 1.8 h | 4.93 ± 0.33 h | 8.29 ± 1 h | 5.84 ± 0.27 h | 14.4 ± 0.48 h
MATNLRGVMAALLTPFDQQQALDKASLRRLVQFNIQQGIDGLYVGGSTGEAFVQSLSEREQVLEIVAEEAKGKIKLIAHVGCVSTAESQQLAASAKRYGFDAVSAVTPFYYPFSFEEHCDHYRAIIDSADGLPMVVYNIPALSGVKLTLDQINTLVTLPGVGALKQTSGDLYQMEQIRREHPDLVLYNGYDEIFASGLLAGADGGIGSTYNIMGWRYQGIVKALKEGDIQTAQKLQTECNKVIDLLIKTGVFRGLKTVLHYMDVVSVPLCRKPFGPVDEKYLPELKALAQQLMQERG [P0A6L4] | 2.77 ± 0.23 h | 1.88 ± 0.19 h | 3.01 h | 2.66 h | 1.84 ± 0.085 h | 2.81 ± 0.23 h | 3.81 ± 0.35 h | 5.83 ± 1.4 h | 2.28 h | 2.1 ± 0.3 h | 4.43 ± 0.18 h | 8.79 h
MATPYISMAGIGKSFGPVHALKSVNLTVYPGEIHALLGENGAGKSTLMKVLSGIHEPTKGTITINNISYNKLDHKLAAQLGIGIIYQELSVIDELTVLENLYIGRHLTKKICGVNIIDWREMRVRAAMMLLRVGLKVDLDEKVANLSISHKQMLEIAKTLMLDAKVIIMDEPTSSLTNKEVDYLFLIMNQLRKEGTAIVYISHKLAEIRRICDRYTVMKDGSSVCSGIVSDVSNDDIVRLMVGRELQNRFNAMKENVSNLAHETVFEVRNVTSRDRKKVRDISFSVCRGEILGFAGLVGSGRTELMNCLFGVDKRAGGEIRLNGKDISPRSPLDAVKKGMAYITESRRDNGFFPNFSIAQNMAISRSLKDGGYKGAMGLFHEVDEQRTAENQRELLALKCHSVNQNITELSGGNQQKVLISKWLCCCPEVIIFDEPTRGIDVGAKAEIYKVMRQLADDGKVILMVSSELPEIITVCDRIAVFCEGRLTQILTNRDDMSEEEIMAWALPQE |  |  |  |  | > 8 h | 2.84 ± 0.095 h | 5.265 ± 0.0056 h |  | 6.14 h |  |  | 10.6 h
